The values that follow come from US8877206B2, “Stimulation of an immune response by cationic lipids” (PDS Biotechnology Corporation, priority 2007, dated 2014).

Series [1] can be described thus: Peptide entrapment efficiency in DOTAP liposomes (LavaPep). In kind it is physicochemical. The note with it: molar ratio lipopeptide: DOTAP = 1:40, mean±SD (n=3). The protocol: Cationic lipid/antigen complexes were prepared as described above. Peptide encapsulation efficiency was determined by the percentage of the liposome-bound peptide using LavaPep™ peptide quantification kit (commercially available from Fluorotechnics of Sydney, Australia). Since unincorporated lipopeptide aggregated and could not pass the exclusion filter, the incorporated lipopeptide was measured as the amount associated with the extruded liposomes in the presence of 1% SDS and reported as the mean±SD (n=3). For water-soluble peptide such as native E7 and KSS-E7, the unbound peptide was separated from the complex by a Microcon® centrifugal filtration device (commercially available from Millipore of Bedford, Mass.). The concentration of the unbound peptide was measured using LavaPep™ according to the manufacturer's instruction.

The target in series [2] is T1, H-2K^b molecules on RMA-S cells (Mus musculus, UniProt P01901).
T1 construct: endogenous in cells; host or cells: RMA-S mouse lymphoma cells
T1 sequence (P01901 22-369): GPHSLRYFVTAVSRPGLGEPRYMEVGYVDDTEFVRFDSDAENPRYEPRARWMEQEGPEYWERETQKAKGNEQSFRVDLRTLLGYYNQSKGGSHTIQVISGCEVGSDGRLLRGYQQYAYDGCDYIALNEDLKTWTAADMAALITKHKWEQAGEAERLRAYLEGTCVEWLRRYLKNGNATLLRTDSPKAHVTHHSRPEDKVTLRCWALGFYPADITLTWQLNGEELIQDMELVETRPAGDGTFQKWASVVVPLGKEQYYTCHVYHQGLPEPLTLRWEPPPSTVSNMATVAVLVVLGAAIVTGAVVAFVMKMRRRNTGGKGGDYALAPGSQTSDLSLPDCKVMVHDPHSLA
T1 sequence (P01887 21-119 partner): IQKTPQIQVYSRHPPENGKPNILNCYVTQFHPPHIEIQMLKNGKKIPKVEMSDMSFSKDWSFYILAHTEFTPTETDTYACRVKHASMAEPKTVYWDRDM
Put plainly: MHC class I binding on RMA-S cells, H-2K^b. It is filed as cell-based. As to conditions: peptide 10 μM.

Series [3] is described as follows: E7 peptide association with the liposome. As to conditions: 0.7 mg lipids and 0.1 mg E7 per mL (molar ratio=11:1). In kind it is physicochemical. The procedure: All lipids were purchased from Avanti Polar Lipids (Alabaster Ala.). Small unilamellar DOTAP, DOEPC, and DOTMA liposomes were prepared by thin film hydration followed by extrusion. The lipid, with or without a drug, in chloroform was dried as a thin layer under a stream of nitrogen in a glass tube. The thin film was vacuum desiccated for 2-3 h and then re-hydrated in cell culture grade water (commercially available from Cambrex of Walkersville, Md.) or buffer containing E7 peptide to a final concentration of 0.7 mg lipids and 0.1 mg E7 per mL (molar ratio=11:1). The lipid dispersion was sequentially extruded through polycarbonate membranes with pore size of 0.4, 0.2 and 0.1 μm. The un-entrapped peptide was not removed. The liposomes were stored at 4° C. until use. E7 peptide association with the liposome was determined by measuring the percentage of liposome-bound peptide. In brief, unbound E7 peptide from DOTAP/E7 or DOTAP/E7/drug (MAP kinase inhibitor) complexes was separated by a Microcon® centrifugal filtrate devices (Millipore, Bedford, Mass.) and the concentration of unbound peptide was measured by Micro BC™ Protein Assay Kit (Pierce, Rockford, Ill. The efficiency of peptide association was determined as percent […] peptide. Approximately 30% of E7 peptide was associated with the liposomes.

The target in series [4] is T2, H-2D^b molecules on RMA-S cells (Mus musculus, UniProt P01899).
T2 construct: it caused a four-fold up-regulation of H-2D^b molecules on RMA-S cells compared to the control; endogenous in cells; host or cells: RMA-S mouse lymphoma cells
T2 sequence (P01899 25-362): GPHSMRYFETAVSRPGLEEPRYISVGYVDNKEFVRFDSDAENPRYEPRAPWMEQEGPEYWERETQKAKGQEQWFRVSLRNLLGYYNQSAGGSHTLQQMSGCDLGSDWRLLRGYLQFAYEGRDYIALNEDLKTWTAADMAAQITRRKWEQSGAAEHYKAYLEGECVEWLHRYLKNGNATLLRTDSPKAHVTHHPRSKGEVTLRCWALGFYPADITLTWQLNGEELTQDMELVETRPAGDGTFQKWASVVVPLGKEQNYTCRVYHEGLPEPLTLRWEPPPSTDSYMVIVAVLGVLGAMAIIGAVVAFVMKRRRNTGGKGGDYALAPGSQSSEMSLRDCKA
T2 sequence (P01887 21-119 partner): T1 sequence (P01887 21-119 partner)
Put plainly: MHC class I binding on RMA-S cells, H-2D^b. It is filed as cell-based. As to conditions: peptide 10 μM, overnight 27° C. then 2 h 37° C.; FIG. 13.

For a further series, the system named is CD8+ T cells. The series can be described thus: IFN-γ producing CD8+ T cells in spleen after immunization. As to conditions: formulated in DOTAP liposomes; 5 nmol peptide; FIG. 12. It is filed as in vivo, mice.
The next series has as its system TC-1 tumor. Put plainly: TC-1 HPV-positive tumor growth in treated mice. As to conditions: formulated in the DOTAP/antigen complex; FIG. 11. It is filed as in vivo, C57BL/6 mice.

Ends that are not written are not given here.

On to RAHYNIVTF [Native E7], for which the “Entrapment efficiency (%)” value in series [1] is listed as 27.1 ± 5.8%; in series [1] (listed as E7) it was “about 25%”. For the same substance, the “Up-regulation of H-2K^b molecules” value in series [2] is “No up-regulation”. The “E7 peptide associated with the liposomes” value in series [3] was “Approximately 30%”. In series [4], the “Up-regulation of H-2D^b molecules (mean fluorescence) compared to the control” value is “four-fold”.
Consider “KSS-E7: E7 peptide RAHYNIVTF elongated with KSS (lysine-serine-serine) spacer, no lipid (not fully specified (N-terminus); also: KSS spacer added, end not given here)”, for which the “Entrapment efficiency (%)” value in series [1] is listed as 26.4 ± 6.1%. Besides, the “Up-regulation of H-2K^b molecules” value in series [2] is on record as “No up-regulation”. Moreover, in series [4], the “Up-regulation of H-2D^b molecules (mean fluorescence) compared to the control” value is recorded as 8 fold. Besides, the “Number of IFN-γ producing CD8+ cells vs native E7 in DOTAP liposomes” value in the series on CD8+ T cells was “superior result than the native E7”. The “Anti-tumor activity compared with native E7” value in the series with TC-1 tumor was “superior anti-tumor activity”.
